Results reported in patent publication US20140170149A1 (Genmab, published 2014).
Where two headings read alike, the source gives them in different places.

B1: IgG1-huOKT3-F405L (antibody, V domains shown)
VH: QVQLVQSGGGVVQPGRSLRLSCKASGYTFTRYTMHWVRQAPGKGLEWIGYINPSRGYTNYNQKVKDRFTISRDNSKNTAFLQMDSLRPEDTGVYFCARYYDDHYSLDYWGQGTPVTVSS
VL: DIQMTQSPSSLSASVGDRVTITCSASSSVSYMNWYQQTPGKAPKRWIYDTSKLASGVPSRFSGSGSGTDYTFTISSLQPEDIATYYCQQWSSNPFTFGQGTKLQIT
notes: Expressed as IgG1,κ with F405L; also called huOKT3-C114S-gLC; IgG1-OKT3
B2: IgG1-HUM291-F405L × IgG1-HER2-153-K409R (bispecific antibody)
heavy 1: not shown
VL 1: DIQMTQSPSSLSASVGDRVTITCRASQGISSWLAWYQQKPEKAPKSLIYDASSLQSGVPSRFSGSGYGTDFSLTISSLQPEDFAIYYCQQYKSYPITFGQGTRLEIK
heavy 2: not shown
VL 2: DIQMTQSPSSLSASVGDRVTITCSASSSVSYMNWYQQKPGKAPKRLIYDTSKLASGVPSRFSGSGSGTDFTLTISSLQPEDFATYYCQQWSSNPPTFGGGTKVEIK
notes: Made by 2-MEA-induced Fab-arm exchange; IgG1,κ; also called HUM291×153
B3: IgG1-huOKT3-F405L × IgG1-HER2-153-K409R (bispecific antibody)
heavy 1: not shown
VL 1: DIQMTQSPSSLSASVGDRVTITCRASQGISSWLAWYQQKPEKAPKSLIYDASSLQSGVPSRFSGSGYGTDFSLTISSLQPEDFAIYYCQQYKSYPITFGQGTRLEIK
heavy 2: not shown
VL 2: DIQMTQSPSSLSASVGDRVTITCSASSSVSYMNWYQQTPGKAPKRWIYDTSKLASGVPSRFSGSGSGTDYTFTISSLQPEDIATYYCQQWSSNPFTFGQGTKLQIT
notes: Made by 2-MEA-induced Fab-arm exchange; IgG1,κ; also called huOKT3×153
B4: IgG1-HUM291-F405L (antibody, V domains shown)
VH: QVQLVQSGAEVKKPGASVKVSCKASGYTFISYTMHWVRQAPGQGLEWMGYINPRSGYTHYNQKLKDKATLTADKSASTAYMELSSLRSEDTAVYYCARSAYYDYDGFAYWGQGTLVTVSS
VL: DIQMTQSPSSLSASVGDRVTITCSASSSVSYMNWYQQKPGKAPKRLIYDTSKLASGVPSRFSGSGSGTDFTLTISSLQPEDFATYYCQQWSSNPPTFGGGTKVEIK
notes: Expressed as IgG1,κ with F405L; also called visilizumab
B5: huOKT3-F405L x b12-K409R (bispecific antibody)
heavy chain, CD3 arm (huOKT3-C114S-gLC, IgG1-F405L): not shown
light chain, CD3 arm: DIQMTQSPSSLSASVGDRVTITCSASSSVSYMNWYQQTPGKAPKRWIYDTSKLASGVPSRFSGSGSGTDYTFTISSLQPEDIATYYCQQWSSNPFTFGQGTKLQIT
heavy chain, b12 arm (IgG1-K409R): not shown
light chain, b12 arm: EIVLTQSPGTLSLSPGERATFSCRSSHSIRSRRVAWYQHKPGQAPRLVIHGVSNRASGISDRFSGSGSGTDFTLTITRVEPEDFALYYCQVYGASSYTFGQGTKLERK
notes: also called huOKT3 x b12; CD3xb12 control
B6: IgG1-hu-CLB-T3/4-F405L × IgG1-HER2-153-K409R (bispecific antibody)
heavy 1: not shown
VL 1: DIQMTQSPSSLSASVGDRVTITCRASQGISSWLAWYQQKPEKAPKSLIYDASSLQSGVPSRFSGSGYGTDFSLTISSLQPEDFAIYYCQQYKSYPITFGQGTRLEIK
heavy 2: not shown
VL 2: EIVLTQSPATLSLSPGERATLSCSASSSVTYVHWYQQKPGQAPRLLIYDTSKLASGIPARFSGSGSGTDFTLTISSLEPEDFAVYYCFQGSGYPLTFGSGTKLEMR
notes: Made by 2-MEA-induced Fab-arm exchange; IgG1,κ; also called huCLB-T3/4×HER2 153
B7: huCLB-T3/4-F405L x b12-K409R (bispecific antibody)
heavy chain, CD3 arm (huCLB-T3/4, IgG1-F405L): not shown
light chain, CD3 arm: EIVLTQSPATLSLSPGERATLSCSASSSVTYVHWYQQKPGQAPRLLIYDTSKLASGIPARFSGSGSGTDFTLTISSLEPEDFAVYYCFQGSGYPLTFGSGTKLEMR
heavy chain, b12 arm (IgG1-K409R): not shown
light chain, b12 arm: EIVLTQSPGTLSLSPGERATFSCRSSHSIRSRRVAWYQHKPGQAPRLVIHGVSNRASGISDRFSGSGSGTDFTLTITRVEPEDFALYYCQVYGASSYTFGQGTKLERK
notes: also called huCLB-T3/4 x b12; CD3xb12 control
B8: IgG1-hu-CLB-T3/4-F405L × IgG1-HER2-169-K409R (bispecific antibody)
heavy 1: not shown
VL 1: EIVLTQSPATLSLSPGERATLSCRASQSVSSYLAWYQQKPGQAPRLLIYDASNRATGIPARFSGSGSGTDFTLTISSLEPEDFAVYYCQQRSNWPRTFGQGTKVEIK
heavy 2: not shown
VL 2: EIVLTQSPATLSLSPGERATLSCSASSSVTYVHWYQQKPGQAPRLLIYDTSKLASGIPARFSGSGSGTDFTLTISSLEPEDFAVYYCFQGSGYPLTFGSGTKLEMR
notes: Made by 2-MEA-induced Fab-arm exchange; IgG1,κ

How the values were obtained:
Experiment in all cases: flow cytometry on Jurkat cells (CD3-expressing T cell line), MFI (PE) (Example 21)
[1] = biological target: T1, human CD3 protein complex (human, UniProt P07766 23-207; P09693 23-182; P04234 22-171; P20963 22-164)
T1 construct: whole, on cells; also called CD3 on Jurkat cells
T1 sequence (P07766 23-207, form in doubt, chain 1 of 4): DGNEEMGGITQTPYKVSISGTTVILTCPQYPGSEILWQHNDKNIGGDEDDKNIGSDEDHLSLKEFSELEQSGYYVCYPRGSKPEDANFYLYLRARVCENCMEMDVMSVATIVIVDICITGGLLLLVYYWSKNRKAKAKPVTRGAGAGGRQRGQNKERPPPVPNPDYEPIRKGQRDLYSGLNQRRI
T1 sequence (P09693 23-182, form in doubt, chain 2 of 4): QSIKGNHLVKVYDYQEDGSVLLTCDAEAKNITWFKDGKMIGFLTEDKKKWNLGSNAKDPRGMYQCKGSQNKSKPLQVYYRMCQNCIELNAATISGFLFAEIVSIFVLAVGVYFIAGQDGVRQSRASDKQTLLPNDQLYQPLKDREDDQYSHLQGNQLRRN
T1 sequence (P04234 22-171, form in doubt, chain 3 of 4): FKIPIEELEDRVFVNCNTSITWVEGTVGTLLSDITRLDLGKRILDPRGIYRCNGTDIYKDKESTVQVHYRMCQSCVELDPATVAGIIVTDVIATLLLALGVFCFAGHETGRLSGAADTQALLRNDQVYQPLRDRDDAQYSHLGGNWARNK
T1 sequence (P20963 22-164, form in doubt, chain 4 of 4): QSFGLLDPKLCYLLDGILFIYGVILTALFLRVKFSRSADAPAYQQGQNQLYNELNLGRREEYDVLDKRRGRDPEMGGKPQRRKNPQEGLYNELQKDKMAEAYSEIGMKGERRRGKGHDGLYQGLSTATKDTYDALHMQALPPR

[2] = biological target: T1, human CD3 protein complex; remark: listed apart in the source
[3] = biological target: T1, human CD3 protein complex; remark: listed apart in the source

Binder | EC50 (read off the curve) [1] | EC50 (read off the curve) [3] | also measured
B1 | ~0.02 µg/mL | – | –
B2 | – | – | EC50 (read off the curve) [2]: ~2 µg/mL
B3 | ~2 µg/mL | – | –
B4 | – | – | EC50 (read off the curve) [2]: ~0.02 µg/mL
B5 | ~3 µg/mL | – | –
B6 | – | ~0.2 µg/mL | –
B7 | – | ~0.2 µg/mL | –
B8 | – | ~0.2 µg/mL | –
